Patent CN105524166A (ATTOBIO (SUZHOU) CO LTD, dated 2016)

Assays:
His-HPV18E7融合蛋白 = target: T1, His-HPV18E7融合蛋白 (human papillomavirus type 18 (HPV18), UniProt P06788 1-105); test: ELISA by the method of Beatty et al.: His-HPV18E7 coated at 8, 2, 0.5 and 0.125 μg/ml, MAB-F2 in two-fold dilutions from 8 μg/ml, mean of six K values
T1 construct: Recombinant His fusion protein coated on ELISA plates; also called HPV18E7重组蛋白; His-HPV18E7重组蛋白; not shown: His tag
T1 chain: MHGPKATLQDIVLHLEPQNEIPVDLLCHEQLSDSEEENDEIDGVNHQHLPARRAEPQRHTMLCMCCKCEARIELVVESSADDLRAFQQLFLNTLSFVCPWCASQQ

CaSki细胞表达的HPV16E7蛋白 = target: T2, CaSki细胞表达的HPV16E7蛋白 (human papillomavirus type 16 (HPV16), UniProt P03129 2-98); test: immunocytochemistry on fixed, permeabilised CaSki cells
T2 construct: Endogenous, intracellular E7 of CaSki cells, tested in fixed, permeabilised cells (ICC); also called 表达HPV16E7的CaSki细胞; HPV16E7阳性细胞CaSki
T2 sequence: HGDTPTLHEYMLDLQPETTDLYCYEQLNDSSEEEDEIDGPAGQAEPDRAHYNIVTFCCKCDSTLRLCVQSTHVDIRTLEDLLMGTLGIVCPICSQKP

His-HPV16E7融合蛋白 = target: T3, His-HPV16E7融合蛋白 (human papillomavirus type 16 (HPV16), UniProt P03129 2-98); test: indirect ELISA, coated His-HPV16E7
T3 construct: Recombinant His fusion protein coated on ELISA plates; also called HPV16E7重组蛋白; His-HPV16E7重组蛋白; not shown: His tag
T3 sequence: T2 sequence

B1: HPV18E7单克隆抗体MAB-F2 (antibody, V domains shown)
VH: LVQSGGGSVKPGGSLKLSCAASGFTFNRYDMSWFRQSPEKRLEWVAEIRNDGSKTHYSDTVTGRFTISRDNAKNTLYLEMSSLRSEDTAMYYCTRDSYGTVFAYWGQGTLVTVSA
VL: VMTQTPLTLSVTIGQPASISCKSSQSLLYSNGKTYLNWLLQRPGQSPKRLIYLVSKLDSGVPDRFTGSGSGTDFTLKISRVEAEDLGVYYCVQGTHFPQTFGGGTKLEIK
notes: also called mAb MAB-F2; anti-HPV18E7单抗MAB-F2
His-HPV18E7融合蛋白
  Kd: 2.67 nM
CaSki细胞表达的HPV16E7蛋白
  binding result: no binding (tested: MAB-F2 5μg/ml)
His-HPV16E7融合蛋白
  binding result: no binding (tested: MAB-F2 1μg/ml; antigen coated at 2μg/ml)
